Assay results taken from patent US20250282881A1 (SHANGHAI EPIMAB BIOTHERAPEUTICS, published 2025).

T1: recombinant human OX40/His fusion protein (Novoprotein, CB17) (human, UniProt P43489 29-216)
T1 construct: Bought protein
T1 sequence: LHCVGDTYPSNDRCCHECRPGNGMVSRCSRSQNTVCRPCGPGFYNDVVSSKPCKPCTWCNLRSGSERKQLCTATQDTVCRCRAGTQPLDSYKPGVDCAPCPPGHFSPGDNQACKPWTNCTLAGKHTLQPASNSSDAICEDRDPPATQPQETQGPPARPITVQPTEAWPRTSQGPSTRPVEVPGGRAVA


Tests used:
[1] = biological target: recombinant cyno PD-L1-his protein (cyno, UniProt G7PSE7 19-239); assay: BLI (Octet Red96), FIT1014-20a on AHC sensor, cyno PD-L1-his as analyte
Chain of recombinant cyno PD-L1-his protein (G7PSE7 entry or part of it): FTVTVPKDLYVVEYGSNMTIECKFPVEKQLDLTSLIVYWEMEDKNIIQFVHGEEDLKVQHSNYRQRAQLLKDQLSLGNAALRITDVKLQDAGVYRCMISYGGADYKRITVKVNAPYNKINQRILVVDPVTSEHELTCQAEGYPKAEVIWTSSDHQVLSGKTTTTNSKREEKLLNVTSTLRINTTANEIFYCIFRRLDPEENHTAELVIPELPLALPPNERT
Description: (§1) The PD-L1 binding activities of FIT1014-20a were detected by biolayer interferometry using an Octet® Red sensing device (ForteBio, Red96). […] The association and dissociation curves were fitted to a 1:1 Langmuir binding model using FortéBio Data Analysis software (Pall) to produce kinetic rate constants Kon and Koff. The equilibrium dissociation constant KD (M) of the reaction between antibodies and related target proteins was then calculated by KD=koff/kon.

[2] = biological target: T2, recombinant human PD-L1/His fusion protein (Novoprotein, Cat. No. C315) (human, UniProt Q9NZQ7 19-239); assay: BLI (Octet Red96), FIT1014-20a on AHC sensor, human PD-L1-his as analyte
T2 construct: also called recombinant human PD-L1-his protein
T2 sequence (Q9NZQ7 19-239 limits assumed): as the sequence (G7PSE7 entry or part of it) above, with T33A, S34A, N62S, Q68R, R82Q, L173F, A185T, I192T, L215H counted along it
Description: as §1

[3] = biological target: Cyno OX40 (protein analyte in BLI, Table 10) (cyno); assay: BLI (Octet Red96), FIT1014-20a on AHC sensor, cyno OX40 as analyte
[4] = biological target: T3, human PD-L1 on cells (CHO-PD-L1, CHO-PD-L1-OS8) (human, UniProt Q9NZQ7 19-290); assay: cell-based receptor blocking assay, FACS: antibody against PD-1-mFc binding to CHO-PD-L1 cells, anti-mouse IgG detection
T3 construct: whole, on cells; also called PD-L1 over-expressing cells; CD274
T3 sequence (Q9NZQ7 19-290): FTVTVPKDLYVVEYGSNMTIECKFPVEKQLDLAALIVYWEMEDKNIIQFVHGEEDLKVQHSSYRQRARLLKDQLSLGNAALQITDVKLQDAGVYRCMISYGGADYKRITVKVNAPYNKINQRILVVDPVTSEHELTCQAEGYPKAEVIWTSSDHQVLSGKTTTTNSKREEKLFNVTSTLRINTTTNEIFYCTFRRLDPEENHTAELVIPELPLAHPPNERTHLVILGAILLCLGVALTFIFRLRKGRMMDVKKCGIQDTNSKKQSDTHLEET
Description: Blocking of PD-1/PD-L1 binding was assessed in a cell based receptor blocking assay (RBA), 100 μl of 2×10⁵ cells/well of CHO-PD-L1 cells were added to a 96-well round-bottomed plate (Corning, Cat #3799), 50 μl serial diluted of antibody at 0.016 nM to 50 nM and 50 μl of 50 μg/ml PD-1-mFc (Novoprotein, #C754) were added to each well, mixed gently then incubated at 4° C. for 1 hour. The cells were washed and stained by Alexa Fluor® 647 anti-mouse IgG (1:500, Jackson ImmunoResearch, #115-606-008). Signals were read out by FACS and curves were fitted by GraphPad Prism 8.0.

[5] = biological target: T3, human PD-L1 on cells (CHO-PD-L1, …); assay: FACS on CHO-PD-L1 cells, Alexa Fluor 647 anti-human IgG, MFI
Description: Cell binding affinity of PD-L1/OX40 antibodies were measured against CHO (ATCC, #CCL-61) overexpressing human PD-L1 (CHO-PD-L1) and CHO overexpressing OX40 (CHO-OX40), respectively. Briefly, 5×10⁵ cells were seeded into each well of a 96-well plate (Corning, #3799). Cells were centrifuged at 400 g for 5 minutes and supernatants were discarded. For each well, 100 μl of 3× serial dilution of antibodies starting from 100 nM were then added and mixed with the cells. After 60 minutes of 4° C. incubation, plates were washed several times to remove excess antibodies. […] After another round of centrifugation and washing, cells were resuspended in FACS buffer for reading on a CytoFLEX Flow Cytometer (Beckman Coulter). Median Fluorescence Intensity (MFI) readouts were plotted against antibody concentration and analyzed with GraphPad Prism 8.0.

[6] = biological target: T1, recombinant human OX40/His fusion …; assay: BLI (Octet RED96), antibody on AHC sensor, OX40/His as analyte, test group 3
Description: All 17 antibodies in Table 4 were expressed by transient transfection of HEK293 cell, purified by Protein A chromatography, and assayed for and ranked by dissociation rate constant (koff). Briefly, antibodies binding affinities and kinetics were characterized by Octet® RED96 biolayer interferometry (Pall FortéBio LLC). Antibodies were captured by Anti-hIgG Fc Capture (AHC) Biosensors (Pall) at a concentration of 100 nM for 120 seconds. After that, sensors were dipped into running buffer (1× pH 7.2 PBS, 0.05% Tween 20, 0.1% BSA) for 60 seconds to check the baseline, then dipped into recombinant human OX40/His fusion protein (Novoprotein, CB17) at assigned concentration for 200 seconds to measure binding, followed by dipped into running buffer for 600 seconds for dissociation. The assay was conducted in four test groups (as listed in Table 5) all containing the EM1007-044c chimeric antibody as the basis for normalization. The association and dissociation curves were fitted to a 1:1 Langmuir binding model using ForteBio Data Analysis software (Pall) to obtain the off-rate constants as shown in Table 5 below. The off-rate of each antibody was compared to that of the EM1007-mAb044c chimeric antibody in the same test group obtained in parallel to produce the corresponding off-rate ratio, serving as a normalized index. […]

[7] = biological target: T2, recombinant human PD-L1/His fusion …; assay: BLI (Octet RED96), antibody on AHC sensor, PD-L1/His as analyte, test group 1
Text: Based on titer and purity, 10 of the 50 humanized antibodies were selected and further assayed in two groups for dissociation rate constant (koff) as shown in Table 7. Chimeric antibody EM0005-86c having VH/VL sequences identical to EM0005-mAb86 (as provided in Table 6) was used as a positive control in each group and served as a basis for normalization. Briefly, antibodies were characterized for affinities and binding kinetics by Octet® RED96 biolayer interferometry (Pall FortéBio LLC). Anti-hIgG Fc Capture (AHC) Biosensors (Pall) with antibody captured at a concentration of 100 nM for 120 seconds were dipped into running buffer (1× pH 7.2 PBS, 0.05% Tween 20, 0.1% BSA) for 60 seconds to check the baseline, then dipped into a single concentration of recombinant human PD-L1/His fusion protein (Novoprotein, Cat. No. C315) to measure binding for 200 seconds, followed by dipped into running buffer to measure dissociation for 600 seconds. The association and dissociation curves were fitted to a 1:1 Langmuir binding model using FortéBio Data Analysis software (Pall). The off-rate ratios shown in Table 7 were calculated by off-rate of a humanized antibody to that of EM0005-86c in the same test group. The off-rate ratio serves as a normalized index, so that the humanized antibodies can be compared to one another across test groups. The lower off-rate ratio indicates higher affinity of an antibody for human PD-L1. HuEM0005-86-21 was selected for further investigation based on the purity and off-rate data.

| Binder | IC50 (read off the curve) [4] [nM] | EC50 (read off the curve) [5] [nM] | Normalized Index (off-rate ratio to EM1007-mAb044c) [6] [%] | koff [6] [s⁻¹] | Off-Rate Ratio to EM0005-86c [7] [%] | koff [7] [s⁻¹] | also measured |
| --- | --- | --- | --- | --- | --- | --- | --- |
| FIT1014-20a (bispecific antibody, human IgG1, kappa, L234A L235A, Hexamer of three component polypeptide chains (two of each); outer Fab anti-PD-L1 (HuEM0005-86-64), inner Fab anti-OX40 (HuEM1007-44-16); also called FIT1014-20a (YTE); PD-L1/OX40 FIT-Ig) chain 1: DIQMTQSPSSVSASVGDRVTITCKASQDVGTAVAWYQQKPGKAPKLLIYWASTRHTGVPSRFSGSGSGTDFTLTISSLQPEDFATYYCQQYSSYPYTFGGGTKVEIKRTVAAPSVFIFPPSDEQLKSGTASVVCLLNNFYPREAKVQWKVDNALQSGNSQESVTEQDSKDSTYSLSSTLTLSKADYEKHKVYACEVTHQGLSSPVTKSFNRGECEVQLQQSGAEVKKPGSSVKVSCKASGHAFSSSWMNWVKQRPGKGLEWIGRIYPGDEITNYNAKFKDKATLTADKSTSTAYMELSSLRSEDTAVYYCARDLLMPYWGQGTLVTVSSASTKGPSVFPLAPSSKSTSGGTAALGCLVKDYFPEPVTVSWNSGALTSGVHTFPAVLQSSGLYSLSSVVTVPSSSLGTQTYICNVNHKPSNTKVDKKVEPKSCDKTHTCPPCPAPEAAGGPSVFLFPPKPKDTLYITREPEVTCVVVDVSHEDPEVKFNWYVDGVEVHNAKTKPREEQYNSTYRVVSVLTVLHQDWLNGKEYKCKVSNKALPAPIEKTISKAKGQPREPQVYTLPPSREEMTKNQVSLTCLVKGFYPSDIAVEWESNGQPENNYKTTPPVLDSDGSFFLYSKLTVDKSRWQQGNVFSCSVMHEALHNHYTQKSLSLSPGK chain 2: EVQLVQSGSELKKPGASVKVSCKASGYTFTTYGINWVRQAPGQGLEWMGYIYIGNAYTEYNEKFKGRFVFSLDTSVSTAYLQISSLKAEDTAVYYCARDLMVIAPKTMDYWGQGTTVTVSSASTKGPSVFPLAPSSKSTSGGTAALGCLVKDYFPEPVTVSWNSGALTSGVHTFPAVLQSSGLYSLSSVVTVPSSSLGTQTYICNVNHKPSNTKVDKKVEPKSC chain 3: DIVMTQTPLSLPVTPGEPASISCRSSKSLLYSNAITYLYWYLQKPGQSPQLLIYQMSNLAPGVPDRFSSSGSGTDFTLKISRVEAEDVGVYYCAQNLELPFTFGQGTKLEIKRTVAAPSVFIFPPSDEQLKSGTASVVCLLNNFYPREAKVQWKVDNALQSGNSQESVTEQDSKDSTYSLSSTLTLSKADYEKHKVYACEVTHQGLSSPVTKSFNRGEC | ~0.8 | ~1 |  |  |  |  | Kd [1]: 0.587 nM; koff [1]: 0.000276 s⁻¹; kon [1]: 470000 M⁻¹ s⁻¹; Kd [2]: 0.255 nM; koff [2]: 0.000158 s⁻¹; kon [2]: 620000 M⁻¹ s⁻¹; Kd [3]: 5.13 nM; koff [3]: 0.0004 s⁻¹; kon [3]: 78000 M⁻¹ s⁻¹ |
| HuEM0005-86-64 (antibody, human IgG1, kappa, L234A L235A, V domains shown, Humanized anti-PD-L1; same as HuEM0005-86-21 except Q1E and C82aS (Kabat) in VH; also called parental anti-PD-L1 monoclonal antibody; parental PD-L1 antibody) VH: EVQLVQSGSELKKPGASVKVSCKASGYTFTTYGINWVRQAPGQGLEWMGYIYIGNAYTEYNEKFKGRFVFSLDTSVSTAYLQISSLKAEDTAVYYCARDLMVIAPKTMDYWGQGTTVTVSS VL: DIQMTQSPSSVSASVGDRVTITCKASQDVGTAVAWYQQKPGKAPKLLIYWASTRHTGVPSRFSGSGSGTDFTLTISSLQPEDFATYYCQQYSSYPYTFGGGTKVEIKR | ~0.8 | ~0.8 |  |  |  |  |  |
| EM1007-mAb044c-13 (antibody, human IgG1, kappa, L234A L235A, V domains shown) VH: EVQLVQSGAEVKKPGSSVKVSCKASGGTFSSSWMNWVRQAPGQGLEWMGRIYPGDEITNYNGKFKDRVTITADKSTSTAYMELSSLRSEDTAVYYCARDLLMPYWGQGTLVTVSS VL: DIVMTQTAFSNPVTLGTSASISCRSSKSLLYSNGITYLYWYLQKPGQSPHLLIYQMSNLAPGVPDRFSSSGSGTDFTLRISRVEAEDVGIYYCAQNLELPFTFGSGTKLEIKR |  |  | 427 | 0.0013 |  |  |  |
| HuEM1007-044-4 (antibody, human IgG1, kappa, L234A L235A, V domains shown, Humanized anti-OX40, human IgG1 LALA / kappa) VH: EVQLVQSGAEVKKPGSSVKVSCKASGHTFSSSWMNWVKQAPGKGLEWIGRIYPGDEITNYNGKFKDKVTLTADKSTSTAYMELSSLRSEDTAVYYCARDLLMPYWGQGTLVTVSS VL: DIVMTQTPLSLPVTPGEPASISCRSSKSLLYSNGITYLYWYLQKPGQSPQLLIYQMSNLAPGVPDRFSGSGSGTDFTLKISRVEAEDVGVYYCAQNLELPFTFGQGTKLEIKR |  |  | 486 | 0.00148 |  |  |  |
| HuEM0005-86-21 (antibody, human IgG1, kappa, L234A L235A, V domains shown, Humanized anti-PD-L1) VH: QVQLVQSGSELKKPGASVKVSCKASGYTFTTYGINWVRQAPGQGLEWMGYIYIGNAYTEYNEKFKGRFVFSLDTSVSTAYLQICSLKAEDTAVYYCARDLMVIAPKTMDYWGQGTTVTVSS VL: DIQMTQSPSSVSASVGDRVTITCKASQDVGTAVAWYQQKPGKAPKLLIYWASTRHTGVPSRFSGSGSGTDFTLTISSLQPEDFATYYCQQYSSYPYTFGGGTKVEIKR |  |  |  |  | 88 | 0.000239 |  |
| EM0005-86c-1 (antibody, V domains shown, Chimeric variant of EM0005-86c) VH: QVQLQQSGAELVRPGSSVKMSCKTSGYTFTTYGINWVKQRPGQGLEWIGYIYIGNAYTEYNEKFKGKATLTSDPSSRTAYMQLSSLTSEDSAIYFCARDLMVIAPKTMDYWGQGTSVTVSS VL: DIQMNQSHKFMSTSVGDRVSITCKASQDVGTAVAWYQQKPGQSPKLLIYWASTRHTGVPDRFTGGGSGTDFTLTISNVQSEDLADYFCQQYSSYPYTFGGGTKLEMK |  |  |  |  | 69 | 0.000188 |  |
